Ends that are not written are not given here.
Columns and labels:
[1] = target: L6 rat muscle myoblast TGF-β receptor (rat); test: competition against 125I-TGF-β2 on L6 rat muscle myoblast TGF-β receptor (Example 5)
[2] = target: L6 rat muscle myoblast TGF-β receptor (rat); test: competition against 125I-TGF-β2 on L6 rat muscle myoblasts
[3] = target: L6 rat muscle myoblast TGF-β receptor (rat); test: competition against 125I-TGF-β2 on L6 rat muscle myoblasts; called apparent dissociation constant of approximately 3 µM in paragraph 85

ED50 [2] [µM] | Molecule | further results
 | TGF-β2 (from UniProt P61812) (ligand) | ED50 [1]: 0.06 nM
30 | CLRPLYIDFKRDLGWK (also: disulfide-linked dimer) [TGF-β2 16-31 dimer] | 
 | CLRPLYIDFKRDLGWKWIHEPKGYNANFCAGA (also: dimer linked by a single disulfide bond, Cys pairing not settled) [TGF-β2 16-47 dimer] | ED50 [3]: 3 µM
30 | CLRPLYIDFKRDLGWKWIHEPKGYNANFCAGA [TGF-β2 16-47 monomer] | 

Reference: patent US5420243
